Test [1] concerns the target mCMKLR1-HA on L1.2 transfectants (mouse) (UniProt P97468). The test is described as follows: radioligand binding.
The target in test [2] is huCCRL2-HA on L1.2 transfectants (human). The test is described as follows: radioligand binding.
Test [3] concerns the target mCCRL2 on freshly isolated mouse peritoneal mast cells (mouse (endogenous in peritoneal mast cells)) (UniProt O35457). The test is described as follows: flow cytometry on cells.
Test [4] deals with T1, mCMKLR1-HA on L1.2 transfectants (mouse, UniProt P97468 1-371).
T1 sequence (looked up): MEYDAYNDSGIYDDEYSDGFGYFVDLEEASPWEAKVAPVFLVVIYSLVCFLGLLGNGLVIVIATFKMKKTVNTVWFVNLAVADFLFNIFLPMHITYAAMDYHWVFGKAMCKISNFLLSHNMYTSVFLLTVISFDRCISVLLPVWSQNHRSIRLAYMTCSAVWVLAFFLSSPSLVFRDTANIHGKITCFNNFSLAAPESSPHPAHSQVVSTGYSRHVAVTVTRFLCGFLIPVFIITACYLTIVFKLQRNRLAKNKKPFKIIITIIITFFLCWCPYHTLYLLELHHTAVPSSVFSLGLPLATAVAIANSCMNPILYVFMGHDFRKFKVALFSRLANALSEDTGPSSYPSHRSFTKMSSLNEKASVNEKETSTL
The test is described as follows: radioligand binding.

The target of test [5] is huCCRL2-HA on L1.2 transfectants (human). The test is described as follows: flow cytometry on cells.
Test [6] concerns the target T2, mCCRL2-HA on L1.2 transfectants (mouse, UniProt O35457 1-360).
T2 sequence (looked up): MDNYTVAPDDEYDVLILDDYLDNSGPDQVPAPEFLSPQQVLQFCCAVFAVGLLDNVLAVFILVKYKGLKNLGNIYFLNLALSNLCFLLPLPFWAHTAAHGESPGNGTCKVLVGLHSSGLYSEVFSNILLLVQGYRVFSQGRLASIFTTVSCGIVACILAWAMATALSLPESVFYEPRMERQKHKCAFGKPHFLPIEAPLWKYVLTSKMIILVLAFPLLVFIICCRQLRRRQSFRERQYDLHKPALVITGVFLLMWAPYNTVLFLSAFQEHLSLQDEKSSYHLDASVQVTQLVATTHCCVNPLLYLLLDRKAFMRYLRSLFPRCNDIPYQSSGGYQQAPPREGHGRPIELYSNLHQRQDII
The test is described as follows: flow cytometry on cells.

In test [7] the target is T2, mCCRL2-HA on L1.2 transfectants. The test is described as follows: radioligand binding.

For the molecule “C-terminal His8-tagged serum form human chemerin (NH2-ADPELTE……-COOH) (from UniProt Q99969 21-155) (ligand)”, the EC50 in test [1] was determined as 26.3 nM.
For the molecule “chemerin (unlabeled; form not specified) (from UniProt Q99969 21-157) (ligand)”, the EC50 in test [2] is 0.2 nM; in test [1], 3.1 nM; in test [3], 21 nM.

B1: bioactive 9-mer carboxyl-terminal chemerin peptide (residues 149–157, YFPGQFAFS) (peptide)
peptide: YFPGQFAFS
Molecule B1 registered a 50% effective concentration (EC50) in test [4] of 26.2 nM.

B2: untagged serum form human chemerin (NH2-ADPELTE…FAPH-COOH) (ligand)
chain: ADPELTEAQRRGLQVALEEFHKHPPVQWAFQETSVESAVDTPFPAGIFVRLEFKLQQTSCRKRDWKKPECKVRPNGRKRKCLACIKLGSEDKVLGRLVHCPIETQVLREAEEHQETQCLRVQRAGEDPHSFYFPGQFAPH
B2: the EC50 in test [5] was found to be 7 nM; in test [6] it was 45 nM.

B3: 125I-chemerin (residues 21–148) (ligand, human, UniProt Q99969 21-148, looked up)
chain: ELTEAQRRGLQVALEEFHKHPPVQWAFQETSVESAVDTPFPAGIFVRLEFKLQQTSCRKRDWKKPECKVRPNGRKRKCLACIKLGSEDKVLGRLVHCPIETQVLREAEEHQETQCLRVQRAGEDPHSF
modifications: 125I (radioiodinated; specific activity 97 Ci/g)
In test [7], B3 came in with a Kd of 1.6 nM.

Values taken from paper PMC2556791 (The Journal of Experimental Medicine, 2008).
